{"source": "patent US20190321466A1", "about": "(CTTQ AKESO SHANGHAI BIOMED TECH, published 2019)", "binders": {"B1": {"name": "monoclonal antibody 14C12 (secreted by hybridoma cell line LT003) (antibody, V domains shown)", "VH": "EVKLVESGGGLVKPGGSLKLSCAASGFAFSSYDMSWVRQTPEKRLEWVATISGGGRYTYYPDSVKGRFTISRDNARNTLYLQMSSLRSEDTALYYCANRYGEAWFAYWGQGTLVTVSA", "VL": "DIKMTQSPSSMYASLGERVTFTCKASQDINTYLSWFQQKPGKSPKTLIYRANRLVDGVPSRFSGSGSGQDYSLTISSLEYEDMGIYYCLQYDEFPLTFGAGTKLEL", "notes": "Mouse antibody purified from hybridoma supernatant; also called PD1-14C12"}}, "target": "T1, PD1 antigen obtained by cleaving PD1-mFc with TEV protease, labeled with biotin (UniProt Q15116 25-170, limits assumed, labeled with biotin (site not stated))", "T1 construct": "also called antigen PD1", "T1 sequence (Q15116 25-170 limits assumed)": "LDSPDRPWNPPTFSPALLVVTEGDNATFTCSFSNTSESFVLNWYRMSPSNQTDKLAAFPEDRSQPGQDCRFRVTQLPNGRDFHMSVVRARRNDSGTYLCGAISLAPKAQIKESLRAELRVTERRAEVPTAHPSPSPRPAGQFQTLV", "assay": "Fortebio Octet, biotin-PD1 on SA sensor, antibody in solution", "from_the_text": "2. […] The dissociation of antigen and antibody were also in PBST."}
{"binder": "B1", "values": [{"measurement": "Kd", "result": 0.0181, "unit": "nM"}, {"measurement": "koff", "result": "6.12e-06", "unit": "s⁻¹"}, {"measurement": "kon", "result": 338000, "unit": "M⁻¹ s⁻¹"}]}
